These results are taken from publication doi:10.1101/431288 (bioRxiv, 2018).

This data set concerns the molecule itself. Kind of data set: cryo-EM structure.

B1: human butyrylcholinesterase (HuBChE), native glycosylated enzyme purified from plasma (enzyme, UniProt P06276 29-602, looked up)
chain: EDDIIIATKNGKVRGMNLTVFGGTVTAFLGIPYAQPPLGRLRFKKPQSLTKWSDIWNATKYANSCCQNIDQSFPGFHGSEMWNPNTDLSEDCLYLNVWIPAPKPKNATVLIWIYGGGFQTGTSSLHVYDGKFLARVERVIVVSMNYRVGALGFLALPGNPEAPGNMGLFDQQLALQWVQKNIAAFGGNPKSVTLFGESAGAASVSLHLLSPGSHSLFTRAILQSGSFNAPWAVTSLYEARNRTLNLAKLTGCSRENETEIIKCLRNKDPQEILLNEAFVVPYGTPLSVNFGPTVDGDFLTDMPDILLELGQFKKTQILVGVNKDEGTAFLVYGAPGFSKDNNSIITRKEFQEGLKIFFPGVSEFGKESILFHYTDWVDDQRPENYREALGDVVGDYNFICPALEFTKKFSEWGNNAFFYYFEHRSSKLPWPEWMGVMHGYEIEFVFGLPLERRDNYTKAEEILSRSIVKRWANFAKYGNPNETQNNSTSWPVFKSTEQKYLTLNTESTRIMTKLRAQQCRFWTSFFPKVLEMTGNIDEAEWEWKAGFHRWNNYMMDWKNQFNDYTSKKESCVGL
notes: also called native BChE tetramer
For the protein B1, the “stoichiometry N” value amounted to 4.

A word on the stoichiometry N: it is the number of molecules, sites or subunits per partner or assembly.
